Here are results for one molecule from patent publication EP4785962A1, “ANTIBODY-DRUG CONJUGATE TARGETING TROP2, AND PREPARATION METHOD AND USE THEREFOR” (priority 2023, dated 2025).

Data set [1] relates to human pancreatic cancer cell line BxPC-3. The data set can be described thus: In vitro cytotoxicity test, BxPC3 cells, 6 days. To be noted: BxPC3, 6 days of culture. The format is cell-based. The method, then:
(§1) 10% FBS (SH30406.05, HYCLONE) was added to RPMI 1640 (22400-071, Gibco), and the mixture was mixed well to prepare a BxPC3 cell (ATCC) growth medium. BxPC3 or FaDu cells were adjusted to a concentration of 50000 cells/mL with a growth medium, seeded into a 96-well white-bottom plate (167008, NUNC) at 50 µL per well (2500 cells/well), and incubated overnight in an incubator at 37 °C. The antibody was diluted with growth medium and serially diluted 5-fold from 200 nM (2×) to obtain 9 gradients, with the final concentration being […]. The diluted antibody-drug conjugate or control was added at 50 µL/well, and the total volume was 100 µL. […] The cell pellet was fully lysed by shaking on a plate shaker for 5 min, and the luminescence signal was stabilized by standing at room temperature for 10 min. The culture plate was tested on a microplate reader (spectra MAX i3x, Molecular Divices), the […] were taken, and the cell viability was calculated. […]
(§2) The cell proliferation inhibition rate after 6 days of culture was calculated using the following formula.
(§3) Cell proliferation inhibition rate (%) = […], where a: the average value of experimental sample-added wells after 6 days of culture; b: the average value of control medium-added wells after 6 days of culture. The data were fitted by GraphPad Prism and the IC50 of the drug was calculated (Table 4).

For data set [2] the following is noted: once every three weeks for a total of 3 times; WO2020240467A1; cited from earlier work.
In data set [3] the test system is human hypopharyngeal carcinoma squamous cell line FaDu. The data set can be described thus: In vitro cytotoxicity test, FaDu cells, 6 days. It counts as cell-based. To be noted: 6 days of culture. The method, then: as §1, §2, §3
The test system of data set [4] is Human gastric cancer cell line NCI-N87. Put plainly: Mouse xenograft tumor model NCI-N87. It counts as in vivo, immunodeficient mice CB17-SCID. To be noted: intraperitoneal injection. The procedure: • 1. Mice: immunodeficient mice CB17-SCID (Vital River) aged 6-8 weeks were placed in an SPF experimental environment for 3-5 days before the experiment to better adapt to the current living environment. In all experiments, the long and short diameters of the tumor were measured twice a week using a vernier caliper, and the tumor volume (mm^3) was calculated from the measured data. The calculation formula is as follows: Tumor volume(mm^3) = 0.5 × long diameter(mm) × short diameter(mm) × short diameter(mm) [formula] • 2. Human gastric cancer cell line NCI-N87 (ATCC) cells were resuspended in 1× PBS (Gibco, 10010049) at an appropriate concentration, and the tumor cells were implanted subcutaneously in the right abdomen of the mice at an inoculation amount of 2×10^6 /mouse. When the tumor volume reached 150-200 mm^3, the mice were divided into groups such that the average initial administration volume of each group was substantially the same. After grouping, different doses of antibody-drug conjugates hRs7-DXd, hRS7-MB3 and hTINA1-DXd, or control-drug conjugates IgG-MB3, IgG-DXd and IgG control were administered by intraperitoneal injection. […] Compared with hRS7-DXd, hRS7-MB3 has a stronger tumor inhibitory effect. […] Non-small cell lung cancer cell line HCC827 cells purchased from ATCC were inoculated subcutaneously into mice (2×10^6 /mouse), and when the tumor volume reached 120-150 mm^3, the mice were grouped and administered. Different doses of the antibody-drug conjugate and the control drug were intraperitoneally injected into the mice, and the administration was performed only once throughout the experiment. The growth status of the mice was observed, and the changes in tumor volume of the mice were measured. […] The lung squamous cell carcinoma cell line LK-2 (CBP60105) purchased from Nanjing Cobioer Biosciences was implanted subcutaneously in the right abdomen of the mice at an inoculation amount of 3 × 10 ^6 cells/mouse. When the tumor volume reached 150-200 mm^3, the mice were divided into groups such that the average initial administration volume of each group was substantially the same. The mice were administered only once throughout the experiment and injected intraperitoneally at a dose of 10 mg/kg. IgG-MB3 or IgG-DXd was used as a negative control. It was observed that two TROP2-targeted ADCs were also able to delay tumor growth in a tumor model with relatively low TROP2 expression (FIG. 7). […] The pancreatic cancer cell line BxPC3 cells purchased from ATCC were implanted subcutaneously in the right abdomen of the mice at an inoculation amount of 3 × 10 ^6 cells/mouse. […]

B1: hTINA1-DXd: control ADC: antibody hTINA1 conjugated with Linker-DXd, average DAR 4.3; TROP2-ADC from Daiichi Sankyo (conjugate, chains of the INN, looked up)
VH: QVQLVQSGAEVKKPGASVKVSCKASGYTFTTAGMQWVRQAPGQGLEWMGWINTHSGVPKYAEDFKGRVTISADTSTSTAYLQLSSLKSEDTAVYYCARSGFGSSYWYFDVWGQGTLVTVSS
VL: DIQMTQSPSSLSASVGDRVTITCKASQDVSTAVAWYQQKPGKAPKLLIYSASYRYTGVPSRFSGSGSGTDFTLTISSLQPEDFAVYYCQQHYITPLTFGQGTKLEIK
modifications: deruxtecan (Linker-DXd), DAR 4.3
notes: control ADC: antibody hTINA1 conjugated with Linker-DXd, average DAR 4.3; TROP2-ADC from Daiichi Sankyo
A word on the IC50: it is the concentration needed to halve the response being measured. The low end stands for greater potency, the high end for weaker potency. For B1, the figures for the IC50 in data set [1] and in data set [3] were 0.55 nM and 1.5 nM, respectively. For the same molecule, the HNSTD in data set [2] is 30 mg/kg. In addition, the tumor inhibitory effect result in data set [4] (high-dose group (3 mg/kg)) is “comparable tumor inhibitory effects”; in data set [4] (low dose (1 mg/kg), compared with IgG-MB3 and IgG-DXd) it was “a certain degree of tumor inhibitory effect”.
